Test results reported in article PMC4764573, “A deep proteomics perspective on CRM1-mediated nuclear export and nucleocytoplasmic partitioning” (eLife, 2015).

Target: mmCRM1 (mouse CRM1), in solution in the direct binding assay (mouse, UniProt Q6P5F9 1-1071)
Experiment: pull-down; 250 pmoles His14-ZZ-bdSUMO tagged candidate on 20 μl anti-ZZ beads; 300 pmoles mmCRM1 with or without 1500 pmoles RanGTP (hsRanQ69L^5-180) in 500 µl; 3 hr at 4°C; elution by bdSENP1 protease; SDS-PAGE and Coomassie-staining
Conditions: both partners purified

Chain of mmCRM1 (mouse CRM1), in solution in the direct binding assay (Q6P5F9 whole entry): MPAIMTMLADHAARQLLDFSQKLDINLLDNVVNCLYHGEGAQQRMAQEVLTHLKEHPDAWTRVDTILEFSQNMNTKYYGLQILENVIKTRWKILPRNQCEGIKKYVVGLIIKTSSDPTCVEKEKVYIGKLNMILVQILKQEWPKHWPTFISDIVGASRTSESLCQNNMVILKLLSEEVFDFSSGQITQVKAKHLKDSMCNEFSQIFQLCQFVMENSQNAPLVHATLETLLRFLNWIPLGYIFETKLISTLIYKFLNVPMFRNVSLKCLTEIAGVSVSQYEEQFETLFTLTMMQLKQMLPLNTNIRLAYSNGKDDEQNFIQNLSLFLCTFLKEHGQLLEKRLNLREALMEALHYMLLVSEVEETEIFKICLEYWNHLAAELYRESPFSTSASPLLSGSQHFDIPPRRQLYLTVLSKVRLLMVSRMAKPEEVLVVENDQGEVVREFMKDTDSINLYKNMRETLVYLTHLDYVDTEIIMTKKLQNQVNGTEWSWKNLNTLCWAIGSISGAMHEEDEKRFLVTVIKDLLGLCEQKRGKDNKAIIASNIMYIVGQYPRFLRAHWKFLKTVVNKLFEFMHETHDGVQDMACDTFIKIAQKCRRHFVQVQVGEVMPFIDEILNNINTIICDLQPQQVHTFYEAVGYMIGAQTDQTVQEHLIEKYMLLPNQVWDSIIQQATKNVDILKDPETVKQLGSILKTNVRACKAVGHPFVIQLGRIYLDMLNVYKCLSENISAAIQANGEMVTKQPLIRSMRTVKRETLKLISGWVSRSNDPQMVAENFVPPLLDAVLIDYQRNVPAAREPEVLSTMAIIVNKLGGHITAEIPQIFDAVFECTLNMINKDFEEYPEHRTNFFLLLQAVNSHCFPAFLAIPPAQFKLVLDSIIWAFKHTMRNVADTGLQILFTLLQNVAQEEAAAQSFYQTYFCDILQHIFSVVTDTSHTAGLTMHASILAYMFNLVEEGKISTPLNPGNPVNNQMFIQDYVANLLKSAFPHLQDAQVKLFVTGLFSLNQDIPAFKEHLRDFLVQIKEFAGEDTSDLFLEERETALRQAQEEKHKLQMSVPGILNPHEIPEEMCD

binding result: binds
B1: H14-ZZ-Sumo tagged ARP2/3 1b (natural protein)
chain: not shown
notes: subunit 1b of the ARP2/3 complex, Xenopus; see Supplementary file 6; also called subunit 1b of the ARP2/3 complex; source: E. coli, purified (Ni2+ chelate chromatography, imidazole elution)
